According to patent US20250152742A1, “COMPOSITIONS AND METHODS FOR NEUROLOGICAL DISEASES” (Trames Bio, Inc., priority 2022, published 2025):
Residue numbers refer to the chain shown, from its start. In names and notes the source's numbering stands.

B1: CODA806: engineered receptor: Y115D, L131Q in SEQ ID NO: 33 (Chemogenic receptor-11) (protein)
chain: MRCSPGGVWLALAASLLHVSLQGEFQRKLYKELVKNYNPLERPVANDSQPLTVYFSLSLLQIMDVDEKNQVLTTNIWLQMSWTDHYLQWNVSEYPGVKTVRFPDGQIWKPDILLDNSADERFDATFHTNVQVNSSGHCQYLPPGIFKSSCPMDLKNFPMDVQTCKLKFGSWSYGGWSLDLQMQEADISGYIPNGEWDLVGIPGKRSERFYECCKEPYPDVTFTVTMRRRMGYYLIQMYIPSLLIVILSWISFWINMDAAPARVGLGITTVLTMTTQSSGSRASLPKVSYVKAIDIWMAVCLLFVFSALLEYAAVNFVSRQHKELLRFRRKRRHHKSPMLNLFQEDEAGEGRFNFSAYGMGPACLQAKDGISVKGANNSNTTNPPPAPSKSPEEMRKLFIQRAKKIDKISRIGFPMAFLIFNMFYWIIYKIVRREDVHNQ
modifications: synthetic sequence of chimeric LGIC
B2: COAD1055 (protein)
chain: B1 chain with R101W, D115E, Q131L, Y210W
modifications: synthetic sequence of chimeric LGIC
B3: CODA1054: engineered receptor: R101M, L131F in SEQ ID NO: 33 (protein)
chain: B1 chain with R101M, D115Y, Q131F
modifications: synthetic sequence of chimeric LGIC
B4: CODA1045: engineered receptor: R101W, Y210V in SEQ ID NO: 33 (protein)
chain: B1 chain with R101W, D115Y, Q131L, Y210V
modifications: synthetic sequence of chimeric LGIC
B5: CODA1039: engineered receptor: Y115E, Y210W in SEQ ID NO: 33 (protein)
chain: B1 chain with D115E, Q131L, Y210W
modifications: synthetic sequence of chimeric LGIC
B6: COAD1056 (protein)
chain: B1 chain with R101F, D115E, Q131L, Y210W
modifications: synthetic sequence of chimeric LGIC
B7: CODA1048: engineered receptor: R101F, Y210F in SEQ ID NO: 33 (protein)
chain: B1 chain with R101F, D115Y, Q131L, Y210F
modifications: synthetic sequence of chimeric LGIC
B8: CODA1027: engineered receptor: R101F, L131D in SEQ ID NO: 33 (protein)
chain: B1 chain with R101F, D115Y, Q131D
modifications: synthetic sequence of chimeric LGIC
B9: CODA1025: engineered receptor: R101F, L131G in SEQ ID NO: 33 (protein)
chain: B1 chain with R101F, D115Y, Q131G
modifications: synthetic sequence of chimeric LGIC

Each molecule was assayed on rat DRG neurons (assay: Rheobase shift / evoked action potentials, rat DRG neurons (current clamp)). Details: Acetylcholine at 3.0 mM; transduced neurons; n=4; FIG. 4B.
Type: cell-based
Method: Using whole cell manual patch clamp electrophysiology in HEK293 cells, rat DRG neurons and rat hippocampal neurons, the EC50 of the various engineered receptors disclosed herein to Ach and non-native ligands was measured using the Hill equation with peak current measurements from escalating doses of ligand. The rheobase shift was also measured in rat DRG neurons, which reflects the efficacy of the receptors. To calculate the rheobase, first, the amount of current that can produce an action potential was determined. Then the ligand was added, followed by a step wise increase in the current injected up to 700 pA.
DRG rheobase experiments were performed in current clamp mode using a potassium-based internal solution containing: 100 mM potassium D-gluconate, 28 mM potassium chloride, 1 mM magnesium chloride hexahydrate, 5 mM magnesium ATP, 10 mM HEPES, and 0.5 mM EGTA (pH=7.2 with potassium hydroxide, osmolarity=290-295 mOsm, calculated liquid junction potential=−13.5 mV). To measure DRG input resistance and rheobase, 500 ms current steps (−200 pA to 700 pA) were applied the membrane in the presence and absence of a compound. No holding current was applied to the membrane for cells included in the final datasets. Data were acquired at 10 kHz, with Bessel filter at 2 kHz and series resistance compensation at 100%. Rheobase was defined as the smallest depolarizing current injection required to cause an action potential to fire in the cell. In a subset of cells, the rheobase was ambiguous, since the action potential appeared to be graded in amplitude. In these cases, a […] of the trace clarified the rheobase. Input resistance was measured from the negative current injections, calculated as the difference in membrane potential at steady state divided by the current injection amplitude and then averaged across the four negative current steps for each recording. Resting membrane potential was measured from the first 100 ms of each sweep, averaged for each recording, and corrected for liquid junction potential. One-way ANOVA with multiple comparisons was used to test for significance of difference in rheobase and input resistance between baseline, drug, and wash conditions.
DRG neurons: DRG rheobase experiments were performed in current clamp mode using a potassium-based internal solution containing (in mM): 100 potassium D-gluconate (G4500), 28 potassium chloride (P9333), 1 magnesium chloride hexahydrate (M2670), 5 magnesium ATP (A9187), 10 HEPES (54457), and 0.5 EGTA (3777) (pH=7.2 with potassium hydroxide, osmolarity=290-295 mOsm, calculated liquid junction potential=−13.5 mV). To measure DRG input resistance and rheobase, 500 ms current steps (−200 pA to 700 pA) were applied the membrane (−400 pA to 700 pA in an early version of the protocol) in the presence and absence of a compound. No holding current was applied to the membrane for cells included in the final datasets. Data were acquired at 10 kHz, with Bessel filter at 2 kHz and series resistance compensation at 100%. Rheobase was defined as the smallest depolarizing current injection required to cause an action potential to fire in the cell. In a subset of cells, the rheobase was ambiguous, since the action potential appeared to be graded in amplitude. In these cases, a […] of the trace clarified the rheobase. Input resistance was measured from the negative current injections, calculated as the difference in membrane potential at steady state divided by the current injection amplitude and then averaged across the four negative current steps for each recording. Resting membrane potential was measured from the first 100 ms of each sweep, averaged for each recording, and corrected for liquid junction potential. One-way ANOVA with multiple comparisons was used to test for significance of difference in rheobase and input resistance between baseline, drug, and wash conditions.
In the case of B1, the “effect on evoked action potentials” value is reported as “no effect”.

Same assay, conditions: RG-3487 (SA-2) at 3 μM; transduced rat DRG neurons; FIG. 4A
In the case of B1, the “current injection evoked action potentials” value is reported as “reversibly inhibits current injection evoked action potentials”.

Same assay, conditions: RG-3487 (SA-2) at 3 μM; transduced rat DRG neurons; n=7
With B1 the “increase in the current required to elicit action potentials” value was about 3 x.

Same assay, conditions: baseline, no ligand; neurons expressing the receptor
With B1 the “Rheobase Shift; Rat DRG Neurons, Baseline” value (“Rheobase Shift … Baseline” below) was 163 ± 28 pA.
In the case of B2, the “Rheobase Shift … Baseline” value is reported as 83 ± 7 pA.
In the case of B3, the “Rheobase Shift … Baseline” value is reported as 105 ± 13 pA.
B4 was tested, and the “Rheobase Shift … Baseline” value was 141 ± 22 pA.
With B5 the “Rheobase Shift … Baseline” value was 88 ± 9 pA.
With B6 the “Rheobase Shift … Baseline” value was 114 ± 12 pA.
In the case of B7, the “Rheobase Shift … Baseline” value is reported as 120 ± 19 pA.
In the case of B8, the “Rheobase Shift … Baseline” value is reported as 100 ± 23 pA.
B9 was tested, and the “Rheobase Shift … Baseline” value was 140 ± 19 pA.

Same assay, conditions: ligand Facinicline/RG-3487 at EC90
For B1, the “Rheobase Shift; Rat DRG Neurons, Facinicline/RG-3487 @ EC90” value was 625 ± 35 pA.

Same assay, conditions: ligand TC-5619 at EC90
B2 was tested, and the “Rheobase Shift; Rat DRG Neurons, +TC-5619 @ EC90” value (shortened to “Rheobase Shift … +TC-5619 @ EC90”) was 562 ± 35 pA.
With B3 the “Rheobase Shift … +TC-5619 @ EC90” value was 673 ± 27 pA.
With B4 the “Rheobase Shift … +TC-5619 @ EC90” value was 700 ± 0 pA.
For B5, the “Rheobase Shift … +TC-5619 @ EC90” value was 453 ± 58 pA.
In the case of B6, the “Rheobase Shift … +TC-5619 @ EC90” value is reported as 632 ± 43 pA.
In the case of B7, the “Rheobase Shift … +TC-5619 @ EC90” value is reported as 590 ± 46 pA.
B8 was tested, and the “Rheobase Shift … +TC-5619 @ EC90” value was 638 ± 63 pA.
B9 was tested, and the “Rheobase Shift … +TC-5619 @ EC90” value was 560 ± 72 pA.
